Legend:
Experiment in all cases: cell-based or functional assay
[1] = target: HIV-1 Env of pseudovirus MGRM-G-019 (HIV-1, clade G isolate MGRM-G-019)
[2] = target: HIV-1 envelope glycoprotein (Env) of isolate MGRM-A-005, clade A (HIV-1)
[3] = target: HIV-1 Env of pseudovirus MGRM-AE-007 (clade CRF01_AE) (HIV-1)
[4] = target: HIV-1 Env of pseudovirus MGRM-Chronic-B-024 (HIV-1)
[5] = target: HIV-1 Env of isolate MGRM-Chronic-B-004, clade B, on pseudovirus (HIV-1)
[6] = target: HIV-1 Env of pseudovirus MGRM-AG-011 (clade CRF_AG) (HIV-1)
[7] = target: HIV-1 Env of pseudovirus CMU02 (clade CRF01_AE) (HIV-1)
[8] = target: HIV-1 Env of pseudovirus MGRM-G-011 (HIV-1, clade G isolate MGRM-G-011)
[9] = target: HIV-1 envelope glycoprotein (Env) of isolate 92RW026, clade A (HIV-1)
[10] = target: HIV-1 Env of pseudovirus MGRM-G-004 (clade G) (HIV-1)
[11] = target: HIV-1 Env of pseudovirus MGRM-Chronic-B-012 (HIV-1)
[12] = target: HIV-1 92RW020 envelope glycoprotein (Env) on pseudovirus (HIV-1)
[13] = target: HIV-1 Env of isolate 92RW021 (clade A pseudovirus) (HIV-1)
[14] = target: HIV-1 Env of isolate 98CN009 (CRF07 BC) (HIV-1 isolate 98CN009)
[15] = target: HIV-1 Env of isolate MGRM-D-011 (clade D pseudovirus) (HIV-1)
[16] = target: HIV-1 envelope glycoprotein (Env) of isolate MGRM-A-014, clade A (HIV-1)
[17] = target: HIV-1 Env of isolate 6535.3 (Acute), clade B, on pseudovirus (HIV-1)
[18] = target: HIV-1 Env of isolate MGRM-D-004 (clade D pseudovirus) (HIV-1)
[19] = target: HIV-1 Env of isolate 93TH305 (HIV-1)
[20] = target: HIV-1 Env of isolate CMU02 (subtype AE) (HIV-1)
[21] = target: HIV-1 Env of isolate MGRM-C-002 (subtype C) (HIV-1)
[22] = target: HIV-1 Env of isolate MGRM-A-006 (HIV-1)
[23] = target: HIV-1 Env of isolate MG RM-D-008 (HIV-1)
[24] = target: HIV-1 Env of isolate MG RM-D-022 (HIV-1)
[25] = target: HIV-1 envelope glycoprotein (Env) of isolate MGRM-C-020 (HIV-1)
[26] = target: HIV-1 Env of isolate CAAN.A2 (subtype B) (HIV-1)
[27] = target: HIV-1 envelope glycoprotein (Env) of isolate MGRM-C-012 (HIV-1)
[28] = target: HIV-1 Env of isolate MGRM-A-007 (subtype A) (HIV-1)
[29] = target: HIV-1 envelope glycoprotein (Env) of isolate MGRM-C-026 (HIV-1)
[30] = target: HIV-1 Env of isolate 93IN905 (subtype C) (HIV-1)
[31] = target: HIV-1 Env of isolate MGRM-AE-004 (subtype AE) (HIV-1)

Sequence of 1443_C16 (PG16) (TCN-116) (antibody) (VH): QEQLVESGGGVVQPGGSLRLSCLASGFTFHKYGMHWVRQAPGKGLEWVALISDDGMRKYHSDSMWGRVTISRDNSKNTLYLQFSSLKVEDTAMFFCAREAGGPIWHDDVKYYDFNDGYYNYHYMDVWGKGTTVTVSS
Sequence of 1443_C16 (PG16) (TCN-116) (antibody) (VL): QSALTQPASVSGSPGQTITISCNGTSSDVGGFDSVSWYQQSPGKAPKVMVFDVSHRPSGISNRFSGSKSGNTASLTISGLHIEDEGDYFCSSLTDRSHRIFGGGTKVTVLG

| Substance | IC50 (µg/ml), pseudovirus neutralization [1] | IC50 (µg/ml), pseudovirus neutralization [2] | IC50 [3] | IC50 (µg/ml), pseudovirus neutralization [4] | IC50 (µg/ml), pseudovirus neutralization [5] | IC50 [6] | IC50 [7] | IC50 (µg/ml), pseudovirus neutralization [8] | IC50 (µg/ml), pseudovirus neutralization [9] | IC50 [10] | IC50 (µg/ml), pseudovirus neutralization [11] | IC50, pseudovirus neutralization [12] | IC50 (µg/ml), pseudovirus neutralization [13] | IC50 (µg/ml), pseudovirus neutralization [14] | IC50 (µg/ml), pseudovirus neutralization [15] | IC50 (µg/ml), pseudovirus neutralization [16] | IC50 (µg/ml), pseudovirus neutralization [17] | IC50 (µg/ml), pseudovirus neutralization [18] | neutralization IC50 [19] | IC50 (µg/mL), pseudovirus neutralization [20] | further results |
| --- | --- | --- | --- | --- | --- | --- | --- | --- | --- | --- | --- | --- | --- | --- | --- | --- | --- | --- | --- | --- | --- |
| b12 (antibody) | 3.77 µg/mL | 3.64 µg/mL | > 50 µg/mL | > 50 µg/mL | 0.26 µg/mL | > 50 µg/mL | 29.3 µg/mL | > 50 µg/mL | > 50 µg/mL | > 50 µg/mL | > 50 µg/mL | > 50 µg/mL | > 50 µg/mL | 1.52 µg/mL | 7.75 µg/mL | > 50 µg/mL | 1.93 µg/mL | > 50 µg/mL |  |  |  |
| 2F5 (antibody) | > 50 µg/mL | 5.7 µg/mL | 0.07 µg/mL | > 50 µg/mL | 2.41 µg/mL | > 50 µg/mL | 0.6 µg/mL | 1.16 µg/mL | 8.63 µg/mL | > 50 µg/mL | 17.6 µg/mL | 3.37 µg/mL | 4.16 µg/mL | > 50 µg/mL | > 50 µg/mL | 1.43 µg/mL | 2.76 µg/mL | 2.3 µg/mL |  |  |  |
| 4E10 (antibody) | 6.53 µg/mL | 4.09 µg/mL | 0.45 µg/mL | 9.19 µg/mL | 3.7 µg/mL | 1.36 µg/mL | 0.72 µg/mL | 1.44 µg/mL | 12.9 µg/mL | 1.47 µg/mL | 48 µg/mL | 3.38 µg/mL | 4.87 µg/mL | 2.46 µg/mL | 0.91 µg/mL | 1.74 µg/mL | 1.23 µg/mL | 1.58 µg/mL |  |  |  |
| 1495_C14 (PGC14) (antibody) | > 50 µg/mL | > 50 µg/mL | > 50 µg/mL | > 50 µg/mL | > 50 µg/mL | > 50 µg/mL | > 50 µg/mL | > 50 µg/mL | > 50 µg/mL | > 50 µg/mL | > 50 µg/mL | 28.6 µg/mL | > 50 µg/mL | 43 µg/mL | > 50 µg/mL | > 50 µg/mL | 35 µg/mL | > 50 µg/mL |  |  |  |
| 2G12 (antibody) | 31 µg/mL | > 50 µg/mL | > 50 µg/mL | > 50 µg/mL | 8.65 µg/mL | > 50 µg/mL | > 50 µg/mL | > 50 µg/mL | 17.2 µg/mL | > 50 µg/mL | 0.22 µg/mL | 0.56 µg/mL | > 50 µg/mL | > 50 µg/mL | 1.5 µg/mL | > 50 µg/mL | 3.85 µg/mL | > 50 µg/mL |  |  |  |
| 5136_H01 (PGT-131) (antibody) |  |  |  |  |  |  |  |  |  |  |  |  |  |  |  |  |  |  | 0.016 µg/mL | > 50 µg/mL | IC50 neutralization [21]: > 50 µg/mL; IC50 [22]: > 50 µg/mL; IC50 (µg/mL), pseudovirus neutralization [23]: > 50 µg/mL; IC50 (µg/mL), pseudovirus neutralization [24]: > 50 µg/mL; IC50 (µg/mL), pseudovirus neutralization [25]: > 50 µg/mL; IC50 neutralization [26]: > 50 µg/mL; IC50 (µg/mL), pseudovirus neutralization [27]: > 50 µg/mL; IC50 (µg/mL), pseudovirus neutralization [28]: > 50 µg/mL; IC50 (µg/mL), pseudovirus neutralization [29]: 1.67 µg/mL; IC50 neutralization [30]: 0.177 µg/mL; IC50 (µg/mL), pseudovirus neutralization [31]: > 50 µg/mL |
| 5147_N06 (PGT-130) (antibody) |  |  |  |  |  |  |  |  |  |  |  |  |  |  |  |  |  |  | 0.021 µg/mL | > 50 µg/mL | IC50 neutralization [21]: > 50 µg/mL; IC50 [22]: > 50 µg/mL; IC50 (µg/mL), pseudovirus neutralization [23]: > 50 µg/mL; IC50 (µg/mL), pseudovirus neutralization [24]: > 50 µg/mL; IC50 (µg/mL), pseudovirus neutralization [25]: > 50 µg/mL; IC50 neutralization [26]: > 50 µg/mL; IC50 (µg/mL), pseudovirus neutralization [27]: > 50 µg/mL; IC50 (µg/mL), pseudovirus neutralization [28]: > 50 µg/mL; IC50 (µg/mL), pseudovirus neutralization [29]: 0.036 µg/mL; IC50 neutralization [30]: 0.02 µg/mL; IC50 (µg/mL), pseudovirus neutralization [31]: 2.43 µg/mL |
| 1443_C16 (PG16) (TCN-116) (antibody) | 1.21 µg/mL | 0.09 µg/mL | 0.04 µg/mL | 0.01 µg/mL | 0.01 µg/mL | 0.002 µg/mL | 43.6 µg/mL | 0.04 µg/mL | 0.03 µg/mL | > 50 µg/mL | 3.74 µg/mL | 0.004 µg/mL | 0.11 µg/mL | 5.76 µg/mL | 0.01 µg/mL | 20.3 µg/mL | 36.9 µg/mL | 0.01 µg/mL |  |  |  |
| 5114_A19 (PGT-128) (antibody) |  |  |  |  |  |  |  |  |  |  |  |  |  |  |  |  |  |  | 0.006 µg/mL | > 50 µg/mL | IC50 neutralization [21]: 0.019 µg/mL; IC50 [22]: > 50 µg/mL; IC50 (µg/mL), pseudovirus neutralization [23]: 0.033 µg/mL; IC50 (µg/mL), pseudovirus neutralization [24]: > 50 µg/mL; IC50 (µg/mL), pseudovirus neutralization [25]: 5.85 µg/mL; IC50 neutralization [26]: 1.48 µg/mL; IC50 (µg/mL), pseudovirus neutralization [27]: 0.058 µg/mL; IC50 (µg/mL), pseudovirus neutralization [28]: > 50 µg/mL; IC50 (µg/mL), pseudovirus neutralization [29]: 0.007 µg/mL; IC50 neutralization [30]: 0.009 µg/mL; IC50 (µg/mL), pseudovirus neutralization [31]: > 50 µg/mL |

Reference: US20250320281A1
